From patent US7384773 (Pfizer, dated 2008)
Non-standard residues stand in square brackets, D forms with d. No end group written: not given here. Sta = CC(C)C[C@H](N)[C@@H](O)CC(=O)O

Target: T1, CHO cell expressed recombinant human beta secretase proteolytically cleaved with HIV protease (human, UniProt P56817 61-453, glycosylated (CHO cell expressed))
T1 construct: N-terminus at V40 after cleavage of the F39-V40 bond; The transmembrane and cytoplasmic domains are deleted; also called HIV protease treated beta secretase; processed enzyme
Assay: affinity chromatography, peptide immobilised on resin

T1 sequence (P56817 other isoform, or with tags, fused parts or gaps): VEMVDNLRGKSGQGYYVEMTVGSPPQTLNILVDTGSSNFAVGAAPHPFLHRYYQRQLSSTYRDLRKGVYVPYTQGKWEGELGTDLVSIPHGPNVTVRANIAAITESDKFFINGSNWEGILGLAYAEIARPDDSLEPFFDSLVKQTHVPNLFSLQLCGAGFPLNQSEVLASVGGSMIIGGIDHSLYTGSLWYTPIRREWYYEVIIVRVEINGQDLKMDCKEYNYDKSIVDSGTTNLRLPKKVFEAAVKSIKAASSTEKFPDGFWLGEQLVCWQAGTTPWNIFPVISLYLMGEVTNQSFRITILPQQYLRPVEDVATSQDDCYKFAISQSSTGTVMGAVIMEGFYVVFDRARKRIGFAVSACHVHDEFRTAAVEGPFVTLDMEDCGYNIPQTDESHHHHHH

SEVN[Sta]VAEFRGGC (also: coupled to Sulfolink resin (via Cys)) [synthetic peptide Ser-Glu-Val-Asn-Sta-Val-Ala-Glu-Phe-Arg-Gly-Gly-Cys (Sta=statine)]
binding result: binds
